Assay results as given in paper PMC5437253.

Key:
Test in all cases: SPR; Biacore 3000; antibodies immobilised on a CM5 chip by amine coupling at ~3000 RU; huFcRn flowed at 5 μl/min for 50 min, 19.5 nM to 10 μM, in PBS pH 5.8 with 5 mM EDTA and 0.05% Tween 20; steady-state fit
K248AzK (human) = target: K248AzK (human)
K248AzK-mPEG (human) = target: K248AzK-mPEG (human)
K288AzK (human) = target: K288AzK (human)
K288AzK-CR110 (human) = target: K288AzK-CR110 (human)
L309AzK (human) = target: L309AzK (human)
L309AzK-CR110 (human) = target: L309AzK-CR110 (human)
L309AzK-mPEG (human) = target: L309AzK-mPEG (human)
M252AzK (human) = target: M252AzK (human)
M252AzK-CR110 (human) = target: M252AzK-CR110 (human)
M252AzK-mPEG (human) = target: M252AzK-mPEG (human)
N286AzK-mPEG (human) = target: N286AzK-mPEG (human)
N384AzK (human) = target: N384AzK (human)
N384AzK-CR110 (human) = target: N384AzK-CR110 (human)
N384AzK-mPEG (human) = target: N384AzK-mPEG (human)
N434AzK (human) = target: N434AzK (human)
Q311AzK (human) = target: Q311AzK (human)
Q311AzK-CR110 (human) = target: Q311AzK-CR110 (human)
Q311AzK-mPEG (human) = target: Q311AzK-mPEG (human)
S254AzK (human) = target: S254AzK (human)
S254AzK-CR110 (human) = target: S254AzK-CR110 (human)
[1] = target: wild-type antibody (human)

Recombinant human FcRn (from UniProt P55899 24-297; P61769 21-119) (receptor)
Kd (K248AzK (human)): 378 nM | Kd (K248AzK-mPEG (human)): 907 nM | Kd (K288AzK (human)): 418 nM | Kd (K288AzK-CR110 (human)): 558 nM | Kd (L309AzK (human)): 437 nM | Kd (L309AzK-CR110 (human)): 2040 nM | Kd (L309AzK-mPEG (human)): 3270 nM | Kd (M252AzK (human)): 249 nM | Kd (M252AzK-CR110 (human)): 2060 nM | Kd (M252AzK-mPEG (human)): 3580 nM | Kd (N286AzK-mPEG (human)): 2830 nM | Kd (N384AzK (human)): 565 nM | Kd (N384AzK-CR110 (human)): 702 nM | Kd (N384AzK-mPEG (human)): 756 nM | Kd (N434AzK (human)): 734 nM | Kd (Q311AzK (human)): 323 nM | Kd (Q311AzK-CR110 (human)): 2050 nM | Kd (Q311AzK-mPEG (human)): 3870 nM | Kd (S254AzK (human)): 465 nM | Kd (S254AzK-CR110 (human)): 2870 nM | Kd [1]: 538 nM
